According to publication doi:10.1101/2021.08.05.455261:
Where two headings read alike, the source gives them in different places.

Tests used:
Assay in all cases: SEC
[1] = biological target: C-terminal domain homolog (CTDH) from Anabaena variabilis (Anabaena variabilis)
[2] = biological target: C-terminal domain homolog (CTDH) from Anabaena variabilis (Anabaena variabilis); remark: listed apart in the source
[3] = biological target: C-terminal domain homolog (CTDH) from Anabaena variabilis (Anabaena variabilis); remark: listed apart in the source
[4] = biological target: C-terminal domain homolog (CTDH) from Anabaena variabilis (Anabaena variabilis); remark: listed apart in the source

Measured: stoichiometry N

C-terminal domain homolog (CTDH) from Anabaena variabilis (natural protein)
2: all assays above
